Measurements as given in the supplement of paper PMC12042874.
± gives the uncertainty stated by the source.

Assay: amyloid nucleation score (Sup35N fusion, yeast selection) (log enrichment); library NNK3; higher = more nucleation; inactive = no reads after selection
In short: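 For the nucleation score, DiMSum gave the log enrichment of output over input reads, centred on the mode score of non-aggregating sequences. Psi-negative yeast expressing Sup35N fused to peptides of 20 random codons were induced with 100 μM copper sulfate for 24 hours and grown 7 days at 30°C on medium lacking adenine and uracil. Input and output plasmid inserts were Illumina-sequenced, and sequences with under 100 input reads were excluded.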

Substance	amyloid nucleation score
ISSNTGFCPAVMLGIPFFRI	inactive
TSQYRPERKLRVR	inactive
YSFCVSVATEQLKHLSSLWH	inactive
LFVLGPDRLDCAQCKLLRDR	inactive
FSSMF	inactive
SETCWVIIYWYIGVKMFSRF	inactive
FGFCWLFNLCYLGNVVYAVM	inactive
VNRKEIRHVRLLCPSRGSVA	-0.091 ± 0.43
YWMMY	inactive
ILNTCYISHFPFQL	2.33 ± 0.087
NTFVDGKSRYYSYLRIVQIL	inactive
YRDRIVNHIVGLLGIGS	1.16 ± 0.11
RDWLIMSLGVVLVWFLRYQY	inactive
ADLGATAAINQKAWVGDQ	inactive
LKLSSC	0.739 ± 0.17
CNKGSNTYVVDYAVGNGH	inactive
TSKREWLMRNYAHCTNFDGR	inactive
DYKMVRYWNLE	inactive
GPARTRWILPRVLGCTYRAA	inactive
SSLVSCYRIFNRSGADLGLT	inactive
GHNVQGNRLMITYDLNIVGS	inactive
PMGNRAWFPFLYEDQKPRIS	inactive
RHQHKRGAV	-0.982 ± 1.4

Substance	amyloid nucleation score
EDYRVGW	inactive
VEGCMIFMVVSLLKHYASYT	inactive
HHHRLARTPHDIVPRQKLVV	inactive
LFDMLMHTSPC	inactive
GFSTYRIKIVYDVNMY	inactive
LRCVGGSGSEGLVLSRMVTG	inactive
LEYDRTFKILFCGGSGWHYS	inactive
CSVFPQVRLCPRSSANQELD	inactive
VSLMMCVVPFMPVLQHMSNA	0.793 ± 0.16
FTYDCECALICINYT	0.448 ± 0.27
LIQPKSR	inactive
MCYALMRTTWCGKLKIVLSG	inactive
EAMPHLARGFVVFMCFFRSG	inactive
VYVRVFGLLPDDTTSSF	inactive
LICYQDLRLLAPWVQG	inactive
LFSNNNCLNIWVWLV	2.19 ± 0.081
DDSNCKRKDRVVSVRMMDLT	inactive
HGILEWMDCVLTLFTRVGMS	inactive
ISCGGLNQ	inactive
LIIHIFLVWDWSSIERRSIS	inactive
FLDPYSHRLSAKALYM	inactive
GYRKMVTLYVDDGNHVYRFL	inactive
MMVIRQYFMVRVEPVHVSSG	inactive

Substance	amyloid nucleation score
SSGGCR	inactive
FIRLYDKIRWYNDGNWVWHV	inactive
KFNGCR	inactive
CYGFSK	inactive
TFGHWAMYVSCWDRVVCGVD	inactive
IRSKCR	inactive
REEAVWQADFVYLTKSAILN	inactive
VFQRR	inactive
YCAFLTNPHVLDFSMNCCKL	2.29 ± 0.059
VMGMDIIRIPS	inactive
RNNSNEKSFLRQSYYHCDCF	2.73 ± 0.07
ADNKLANWSGAVREWEVRRV	-0.523 ± 0.95
HYINYINLQMVYFDVGQMYC	2.96 ± 0.062
RPGYHSVVKHAKRLVEVNR	inactive
STMWYYMLVVIMRSCRAGDR	0.793 ± 0.17
IVTYLLFDYHNPTRVSYYEC	inactive
FNSYKGNVSFAGW	-0.155 ± 1.4
GVRNWG	inactive
SMRSA	inactive
DGMTMFLSYN	-0.208 ± 1.1
SCGTCKTSFIKR	inactive
RVRIKTWYRMMGYMLCWCEL	inactive
GRTSWGRRR	inactive

Substance	amyloid nucleation score
LFANTYVV	inactive
PFCLPRGASCRAGCGEHIKG	inactive
MILNINVMYYFMYEGKIVMP	2.7 ± 0.049
SIFFNVVLFWGVWELTQGNR	0.803 ± 0.27
MGKTRLADLRVYRTVWLFSR	inactive
SDDRIT	inactive
VFVFDVLFGLLNMANFREVD	-0.713 ± 0.88
GPILL	inactive
VGRRDN	inactive
GVVVIPS	0.933 ± 0.16
YLRWLLFYS	inactive
YAVCSSLKYLIVESSKLTSV	0.038 ± 0.36
VINVT	inactive
GRIFYWRDMDTYQR	inactive
ACLLLSDLNY	inactive
FSCSYTMGQCEASCVWQLKY	0.36 ± 0.35
HHIFVFQGLASLNLHTDWML	1.62 ± 0.1
DHVAG	inactive
FNGICRWTCYSCS	2.09 ± 0.08
CCMVNRGTRQVSRWIVPNWR	inactive
GAFRTFYMLMWSYLCISGSV	inactive
YVLCFVVELWIGFSDDWISW	inactive
WSRSSADRVII	-0.471 ± 1.5

Substance	amyloid nucleation score
VTFLHGCIDFAGSYSAGSSD	inactive
AVMVRRYFVDWCRQEVTFHV	0.088 ± 0.62
PNRWLSRLALRIFLGHCEPV	inactive
YHLFLDVVFFHSTKDESRKN	0.187 ± 0.6
NYDRYCANIMYTAMCIRLLW	inactive
LVDVDVHR	-0.994 ± 2.5
SNLMYGNISINLDRWYVAFF	2.51 ± 0.074
TTTRIAMYWYEYMSGCASHY	inactive
IYGTRGSIKSYDTHSGRCGR	inactive
GVYYSCAFSTLIKGVNRSTV	inactive
CNMRVERLMSLFSL	inactive
RMPAFLCGYC	inactive
ACDTVEDGTSGGHCWVCGDG	inactive
WKPCS	inactive
LIFLTMVSLLFGDQRRSGVQ	0.221 ± 0.54
GCSSVRAGH	inactive
FCDAKYLRLRSCALISMPSV	inactive
NGVMGRGLYTKSQRSYCDNN	inactive
YVGFVARVVRDYNGYQRDTC	inactive
FHEFSTSFWSFEASLLTARL	inactive
LGVEVSMMTWCRMSSSMLMT	inactive
SIYCTLRVVGT	inactive
MRMNVTIRFVMFNTGLRMYG	inactive

Substance	amyloid nucleation score
YQICGCSCLSYLPFLTSSIF	inactive
RSVLLKVHTWITKSCFSTGL	inactive
LVVLIFYYV	inactive
EFALTIWCLGAALCIIKSLS	inactive
MFSLNVYMGDTIVVHQGFTD	2.77 ± 0.058
TRSCDRYRALYSLLFTTGSM	inactive
RNMEPDASVATV	inactive
NLMCVNTVGLKYGPRELSNH	inactive
LCLGFVHPVIPFWIAML	inactive
MFSPQSNRFSSFGNNSITGH	inactive
YVWIDYSSVYMD	inactive
WRYYRAYKVITHIKFLFFTE	inactive
RTLSNFSGKVVLLI	inactive
YFCSFREVRSHGQTLR	inactive
ICRLRPLSWMWFAAYSCLFN	inactive
DILIREFDYLTSTHLDDKIR	inactive
LPSLQTG	inactive
NDHSEGTCSIRERQTSRWML	inactive
SQACNHLVADRSTIGELSRM	inactive
FATVYELAYYQGTYCKVRCS	0.148 ± 0.78
LLLIKPRKVPLIEVCGWETV	inactive
GAWVTATWAFDAVLFCPGKM	inactive
SLASRHIGHLLISFLLGYGA	inactive

Substance	amyloid nucleation score
EKTWKDWTHLSGRKRMI	inactive
NCHAGPYEVYLVVGPELLLK	inactive
NMYSCNSGGHKQLCLKVGDL	inactive
CSGGGGKRGLLSTLTEPMRR	inactive
MWVFKMRTGQYRASSRSLHR	0.175 ± 0.37
SLLNSNHHGRVMQPRRINSD	inactive
NNPSHGTRQNTYSALGWDHT	inactive
ELYMQMCYRRIGCV	inactive
APVKLAGLHTSVRARGIGYW	-0.192 ± 1.3
THHRPWWYHSEVGVRCMNEV	0.049 ± 0.96
CYPTSFGCFFVFFWYYVYCG	inactive
DPINNYSLFFKLCLELHFFA	inactive
CIVYSFSRGFTSNGGEGYRW	0.67 ± 0.22
LDNVKDVRYWIVCTQWWNRV	inactive
GMCKGMVIGSAVDFTMFSAA	inactive
AIVFGGNAQKSHTHDTGAMG	inactive
CMLCKPWSSQVNSY	inactive
LFWYTAH	-0.361 ± 0.38
GSYFN	inactive
GNDNYVVLFNCDV	inactive
VWAYFDMFDTFCYKVTARMK	inactive
WFTVHLIVCSVRRLDSFVLP	inactive
